# According to paper PMC5716219:
# B1: Telomere fold-back 18 nt 3' overhang (structured_DNA)
# DNA: CTAACCGCATCTAGCTTTTTGCTAGATGCGGTTAGGGTTAGGGTTAGGGTTAG
# B2: Two-oligonucleotide junction 32/22 (mixed)
# DNA 1: GCGTACTCAGTGACTCAGATCGAGCGTATCCG
# DNA 2: CGATCTGAGTCACTGAGTACGC
# B3: smFRET non-telomeric junction, 18 nt overhang (mixed)
# DNA 1: TGGCGACGGCAGCGAGGCAGCGTATCCGTTCAGTTG
# DNA 2: GCCTCGCTGCCGTCGCCA
# B4: smFRET 3G4-Cy3 (mixed)
# DNA 1: TGGCGACGGCAGCGAGGCTTAGGGTTAGGGTTAGGGTTAGGG
# DNA 2: GCCTCGCTGCCGTCGCCA
# B5: Non-Tel fold-back 18 nt 3' overhang (structured_DNA)
# DNA: ACGACTGCATCTAGCTTTTTGCTAGATGCAGTCGTAGCGTATCCGTTCAGTTG
# B6: smFRET 3G46-Cy3 (mixed)
# DNA 1: TGGCGACGGCAGCGAGGCTTAGGGTTAGGGTTAGGGTTAGGGAGCGTA
# DNA 2: GCCTCGCTGCCGTCGCCA
# B7: Mixed fold-back 18 nt 3' overhang (structured_DNA)
# DNA: ACGACTGCATCTAGCTTTTTGCTAGATGCAGTCGTGGTTAGGGTTAGGGTTAG
# What was measured:
# [1] = target: T1, CST complex (CTC1-STN1-TEN1) (human, UniProt Q2NKJ3;Q9H668;Q86WV5 1-1217;1-368;1-123); assay: EMSA
# [2] = target: T1, CST complex (CTC1-STN1-TEN1); assay: EMSA; remark: listed apart in the source
# [3] = target: T1, CST complex (CTC1-STN1-TEN1); assay: EMSA; remark: listed apart in the source
# [4] = target: T1, CST complex (CTC1-STN1-TEN1); assay: EMSA; remark: listed apart in the source
# [5] = target: T1, CST complex (CTC1-STN1-TEN1); assay: smFRET
# [6] = target: T1, CST complex (CTC1-STN1-TEN1); assay: smFRET; remark: listed apart in the source
# [7] = target: T1, CST complex (CTC1-STN1-TEN1); assay: EMSA; remark: listed apart in the source
# [8] = target: T1, CST complex (CTC1-STN1-TEN1); assay: EMSA; remark: listed apart in the source
# T1 sequence (Q2NKJ3 whole entry, chain 1 of 3): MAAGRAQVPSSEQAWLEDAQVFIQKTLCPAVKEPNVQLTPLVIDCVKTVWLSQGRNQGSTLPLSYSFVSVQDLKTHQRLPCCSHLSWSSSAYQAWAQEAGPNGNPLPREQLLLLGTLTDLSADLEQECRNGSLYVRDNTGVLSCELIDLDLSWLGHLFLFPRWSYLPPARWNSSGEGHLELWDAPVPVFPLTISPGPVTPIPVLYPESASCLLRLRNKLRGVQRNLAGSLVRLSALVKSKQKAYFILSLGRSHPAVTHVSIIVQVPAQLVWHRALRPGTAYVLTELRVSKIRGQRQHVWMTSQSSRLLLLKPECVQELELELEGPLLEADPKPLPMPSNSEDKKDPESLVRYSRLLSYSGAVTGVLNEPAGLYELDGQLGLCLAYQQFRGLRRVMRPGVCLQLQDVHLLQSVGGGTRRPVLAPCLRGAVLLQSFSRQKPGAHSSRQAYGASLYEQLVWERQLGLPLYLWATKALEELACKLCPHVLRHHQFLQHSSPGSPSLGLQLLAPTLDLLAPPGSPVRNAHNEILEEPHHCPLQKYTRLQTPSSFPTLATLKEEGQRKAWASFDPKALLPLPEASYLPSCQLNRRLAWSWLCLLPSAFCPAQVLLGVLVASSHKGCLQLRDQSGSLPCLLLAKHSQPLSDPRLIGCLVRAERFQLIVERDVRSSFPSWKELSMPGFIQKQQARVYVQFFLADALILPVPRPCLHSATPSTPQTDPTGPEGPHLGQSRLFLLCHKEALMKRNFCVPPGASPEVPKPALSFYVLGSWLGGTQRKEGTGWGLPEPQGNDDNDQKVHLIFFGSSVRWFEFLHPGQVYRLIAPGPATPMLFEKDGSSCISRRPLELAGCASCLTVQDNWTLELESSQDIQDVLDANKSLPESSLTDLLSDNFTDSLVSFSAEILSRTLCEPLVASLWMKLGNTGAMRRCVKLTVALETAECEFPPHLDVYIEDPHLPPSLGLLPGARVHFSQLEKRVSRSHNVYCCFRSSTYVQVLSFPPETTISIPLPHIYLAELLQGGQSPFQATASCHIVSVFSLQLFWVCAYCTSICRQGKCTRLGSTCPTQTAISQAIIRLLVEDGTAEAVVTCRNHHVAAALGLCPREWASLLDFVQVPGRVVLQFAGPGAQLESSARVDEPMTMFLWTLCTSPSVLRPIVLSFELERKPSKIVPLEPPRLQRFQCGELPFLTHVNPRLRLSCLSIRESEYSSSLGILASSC
# T1 sequence (Q9H668 whole entry, chain 2 of 3): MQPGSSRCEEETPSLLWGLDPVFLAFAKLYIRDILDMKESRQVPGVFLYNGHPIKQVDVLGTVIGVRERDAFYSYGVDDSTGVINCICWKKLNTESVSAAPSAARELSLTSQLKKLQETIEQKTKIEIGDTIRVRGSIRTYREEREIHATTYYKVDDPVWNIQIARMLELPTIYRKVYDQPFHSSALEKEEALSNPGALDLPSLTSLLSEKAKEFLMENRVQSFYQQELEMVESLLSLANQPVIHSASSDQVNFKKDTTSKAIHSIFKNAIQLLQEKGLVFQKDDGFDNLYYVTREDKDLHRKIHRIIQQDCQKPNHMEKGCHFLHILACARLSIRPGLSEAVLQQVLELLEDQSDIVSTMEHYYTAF
# T1 sequence (Q86WV5 whole entry, chain 3 of 3): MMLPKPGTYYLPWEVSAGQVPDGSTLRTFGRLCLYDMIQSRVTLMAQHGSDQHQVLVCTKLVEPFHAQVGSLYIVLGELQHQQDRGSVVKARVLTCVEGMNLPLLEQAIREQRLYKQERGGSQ
binder,measurement,setting,value
GGTTAGGGTTAGGGTTAG (ssDNA) [Tel 18],binding result,[1],binds
B1,binding result,[2],binds
B2,binding result,[3],binds
TTAGGGTTAGGGTTAGGGTTAGGG (structured_DNA) [3G4],binding result,[4],binds
TTAGGGTTAGGGTTAGGGTTAGGGTTAGGG (structured_DNA) [3G5 (G5 in text)],binding result,[4],binds
TTAGGGTTAGGGTTAGGGTTAGGGAGCGTA (structured_DNA) [3G46],binding result,[4],binds
GGGTTAGGGTTAGGGTTAGGG (structured_DNA) [G4],binding result,[4],binds
B3,binding result,[5],binds
B4,binding result,[6],binds
B5,binding result,[2],binds
B6,binding result,[6],binds
B7,binding result,[7],binds
"ACGACTGCATCTAGCTTTTTGCTAGATGCAGTCGT (structured_DNA) [Non-Tel fold-back (dsDNA), no overhang]",binding result,[7],no binding
AGCGTATCCGTTCAGTTG (ssDNA) [Non-Tel 18],binding result,[7],no binding
CGATCTGAGTCACTGAGTACGC (ssDNA) [Non-Tel 22],binding result,[8],no binding
